Assay results from publication PMC8903895.

Target: dengue virus envelope protein (dengue virus serotype 2 strain New Guinea C)
Experiment: proximity ligation

Substance: dengue virus prM protein (natural protein)
- PLA foci per cell (WT cells) (foci per cell): 26
- PLA foci per cell (YBX1 KO1 cells) (foci per cell): 58
- PLA foci per cell (YBX1 KO2 cells) (foci per cell): 27

Substance: dengue virus capsid protein (natural protein)
- PLA foci per cell (WT cells) (foci per cell): 11
- PLA foci per cell (YBX1 KO1 cells) (foci per cell): 5
- PLA foci per cell (YBX1 KO2 cells) (foci per cell): 7
